Legend:
[1] = test system: T1, Peptide probe sequence I: Biotin-IEGRGS (KBv TAG Plus) amide
T1 sequence: IEGRGSK

[2] = test system: T2, Peptide sequence V: Bz-IEGRDYKDDDDKGSHHHHHH(mPeg2)(KLCBiot)-amide
T2 sequence: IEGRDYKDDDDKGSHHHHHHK

[3] = test system: T3, Peptide sequence VI: NH2-IEGRDYKDDDDKGS-amide
T3 sequence: IEGRDYKDDDDKGS

[4] = test system: T4, Peptide probe sequence II: Biotin-(mPeg2)IEGRGS (KBv TAG Plus) amide
T4 sequence: IEGRGSK

[5] = test system: T5, NH2-IEGRDYKDDDDKGS-TAG (SEQ ID NO:5)
T5 sequence: IEGRDYKDDDDKGS

[6] = target: Peptide sequence VII: NH2-…-TAG Plus; assay: competitive ECL immunoassay; anti-FLAG M1 beads with peptide sequence VII-TAG Plus, uncleaved peptide sequence VI present, Xa 0.00 ng/mL
NH2-…-TAG (SEQ ID NO:5) [7] = assay: ECL capture assay; uncleaved NH2-…-TAG at 2.5 µg/mL, FXa 0.00 ng/mL
NH2-…-TAG (SEQ ID NO:5) [8] = assay: ECL capture assay; uncleaved NH2-…-TAG at 1.25 µg/mL, FXa 0.00 ng/mL
NH2-…-TAG (SEQ ID NO:5) [9] = assay: ECL capture assay; uncleaved NH2-…-TAG at 5.0 µg/mL, FXa 0.00 ng/mL
[10] = target: Peptide sequence V: Bz-…(mPeg2)(KLCBiot)-amide; assay: ECL bead immunoassay; uncleaved peptide sequence V on streptavidin beads, FXa 0.00 ng/mL, 20 minute incubation
[11] = target: Peptide sequence V: Bz-…(mPeg2)(KLCBiot)-amide; assay: ECL bead immunoassay; uncleaved peptide sequence V on streptavidin beads, FXa 0.00 ng/mL, 10 minute incubation

factor Xa (FXa)
% Signal Decrease, FXa 78.1 ng/mL [1]: -3% | % Signal Decrease, FXa 156 ng/mL [1]: -3% | % Signal Decrease, FXa 313 ng/mL [1]: -9% | % Signal Decrease, FXa 625 ng/mL [1]: -15% | % Signal Decrease, FXa 1250 ng/mL [1]: -31% | % Signal Decrease, FXa 2500 ng/mL [1]: -53% | % Signal Decrease, FXa 5000 ng/mL [1]: -76% | Mean Signal (ECL), FXa 78.1 ng/mL [1]: 414000 ECL signal | Mean Signal (ECL), FXa 156 ng/mL [1]: 413000 ECL signal | Mean Signal (ECL), FXa 313 ng/mL [1]: 388000 ECL signal | Mean Signal (ECL), FXa 625 ng/mL [1]: 363000 ECL signal | Mean Signal (ECL), FXa 1250 ng/mL [1]: 296000 ECL signal | Mean Signal (ECL), FXa 2500 ng/mL [1]: 202000 ECL signal | Mean Signal (ECL), FXa 5000 ng/mL [1]: 104000 ECL signal | Mean Signal (ECL, TAG Plus anti-FLAG M1 detector), FXa 0.686 ng/mL, 10 minute incubation [2]: 856 ECL signal | Mean Signal (ECL, TAG Plus anti-FLAG M1 detector), FXa 0.686 ng/mL, 20 minute incubation [2]: 1050 ECL signal | Mean Signal (ECL, TAG Plus anti-FLAG M1 detector), FXa 2.06 ng/mL, 10 minute incubation [2]: 1430 ECL signal | Mean Signal (ECL, TAG Plus anti-FLAG M1 detector), FXa 2.06 ng/mL, 20 minute incubation [2]: 2110 ECL signal | Mean Signal (ECL, TAG Plus anti-FLAG M1 detector), FXa 6.17 ng/mL, 10 minute incubation [2]: 3100 ECL signal | Mean Signal (ECL, TAG Plus anti-FLAG M1 detector), FXa 6.17 ng/mL, 20 minute incubation [2]: 6040 ECL signal | Mean Signal (ECL, TAG Plus anti-FLAG M1 detector), FXa 18.5 ng/mL, 10 minute incubation [2]: 8790 ECL signal | Mean Signal (ECL, TAG Plus anti-FLAG M1 detector), FXa 18.5 ng/mL, 20 minute incubation [2]: 20700 ECL signal | Mean Signal (ECL, TAG Plus anti-FLAG M1 detector), FXa 55.6 ng/mL, 10 minute incubation [2]: 33700 ECL signal | Mean Signal (ECL, TAG Plus anti-FLAG M1 detector), FXa 55.6 ng/mL, 20 minute incubation [2]: 74000 ECL signal | Mean Signal (ECL, TAG Plus anti-FLAG M1 detector), FXa 167 ng/mL, 10 minute incubation [2]: 113000 ECL signal | Mean Signal (ECL, TAG Plus anti-FLAG M1 detector), FXa 167 ng/mL, 20 minute incubation [2]: 225000 ECL signal | Mean Signal (ECL, TAG Plus anti-FLAG M1 detector), FXa 500 ng/mL, 10 minute incubation [2]: 298000 ECL signal | Mean Signal (ECL, TAG Plus anti-FLAG M1 detector), FXa 500 ng/mL, 20 minute incubation [2]: 498000 ECL signal | Signal/Background, FXa 0.686 ng/mL, 10 minute incubation [2]: 2.5 | Signal/Background, FXa 0.686 ng/mL, 20 minute incubation [2]: 3.3 | Signal/Background, FXa 2.06 ng/mL, 10 minute incubation [2]: 4.1 | Signal/Background, FXa 2.06 ng/mL, 20 minute incubation [2]: 6.6 | Signal/Background, FXa 6.17 ng/mL, 10 minute incubation [2]: 9 | Signal/Background, FXa 6.17 ng/mL, 20 minute incubation [2]: 19 | Signal/Background, FXa 18.5 ng/mL, 10 minute incubation [2]: 25 | Signal/Background, FXa 18.5 ng/mL, 20 minute incubation [2]: 65 | Signal/Background, FXa 55.6 ng/mL, 10 minute incubation [2]: 98 | Signal/Background, FXa 55.6 ng/mL, 20 minute incubation [2]: 232 | Signal/Background, FXa 167 ng/mL, 10 minute incubation [2]: 328 | Signal/Background, FXa 167 ng/mL, 20 minute incubation [2]: 706 | Signal/Background, FXa 500 ng/mL, 10 minute incubation [2]: 864 | Signal/Background, FXa 500 ng/mL, 20 minute incubation [2]: 1560 | % Signal Decrease, Xa 0.686 ng/mL [3]: -8.5% | % Signal Decrease, Xa 2.06 ng/mL [3]: -22% | % Signal Decrease, Xa 6.17 ng/mL [3]: -42% | % Signal Decrease, Xa 18.5 ng/mL [3]: -60% | % Signal Decrease, Xa 55.6 ng/mL [3]: -75% | % Signal Decrease, Xa 167 ng/mL [3]: -84% | % Signal Decrease, Xa 500 ng/mL [3]: -89% | Mean Signal (ECL, competitive format), Xa 0.686 ng/mL [3]: 84000 ECL signal | Mean Signal (ECL, competitive format), Xa 2.06 ng/mL [3]: 71900 ECL signal | Mean Signal (ECL, competitive format), Xa 6.17 ng/mL [3]: 53000 ECL signal | Mean Signal (ECL, competitive format), Xa 18.5 ng/mL [3]: 36400 ECL signal | Mean Signal (ECL, competitive format), Xa 55.6 ng/mL [3]: 22500 ECL signal | Mean Signal (ECL, competitive format), Xa 167 ng/mL [3]: 14300 ECL signal | Mean Signal (ECL, competitive format), Xa 500 ng/mL [3]: 9830 ECL signal | % Signal Decrease, FXa 78.1 ng/mL [4]: 0% | % Signal Decrease, FXa 156 ng/mL [4]: -4% | % Signal Decrease, FXa 313 ng/mL [4]: -11% | % Signal Decrease, FXa 625 ng/mL [4]: -10% | % Signal Decrease, FXa 1250 ng/mL [4]: -24% | % Signal Decrease, FXa 2500 ng/mL [4]: -39% | % Signal Decrease, FXa 5000 ng/mL [4]: -66% | Mean Signal (ECL), FXa 78.1 ng/mL [4]: 340000 ECL signal | Mean Signal (ECL), FXa 156 ng/mL [4]: 326000 ECL signal | Mean Signal (ECL), FXa 313 ng/mL [4]: 303000 ECL signal | Mean Signal (ECL), FXa 625 ng/mL [4]: 306000 ECL signal | Mean Signal (ECL), FXa 1250 ng/mL [4]: 257000 ECL signal | Mean Signal (ECL), FXa 2500 ng/mL [4]: 209000 ECL signal | Mean Signal (ECL), FXa 5000 ng/mL [4]: 117000 ECL signal | Mean Signal (ECL, capture on anti-FLAG M1 beads), FXa 1.37 ng/mL, peptide 1.25 µg/mL [5]: 1140 ECL signal | Mean Signal (ECL, capture on anti-FLAG M1 beads), FXa 1.37 ng/mL, peptide 2.5 µg/mL [5]: 1390 ECL signal | Mean Signal (ECL, capture on anti-FLAG M1 beads), FXa 1.37 ng/mL, peptide 5.0 µg/mL [5]: 3720 ECL signal | Mean Signal (ECL, capture on anti-FLAG M1 beads), FXa 4.12 ng/mL, peptide 1.25 µg/mL [5]: 2170 ECL signal | Mean Signal (ECL, capture on anti-FLAG M1 beads), FXa 4.12 ng/mL, peptide 2.5 µg/mL [5]: 3830 ECL signal | Mean Signal (ECL, capture on anti-FLAG M1 beads), FXa 4.12 ng/mL, peptide 5.0 µg/mL [5]: 6360 ECL signal | Mean Signal (ECL, capture on anti-FLAG M1 beads), FXa 12.3 ng/mL, peptide 1.25 µg/mL [5]: 4440 ECL signal | Mean Signal (ECL, capture on anti-FLAG M1 beads), FXa 12.3 ng/mL, peptide 2.5 µg/mL [5]: 7700 ECL signal | Mean Signal (ECL, capture on anti-FLAG M1 beads), FXa 12.3 ng/mL, peptide 5.0 µg/mL [5]: 14900 ECL signal | Mean Signal (ECL, capture on anti-FLAG M1 beads), FXa 37.0 ng/mL, peptide 1.25 µg/mL [5]: 10700 ECL signal | Mean Signal (ECL, capture on anti-FLAG M1 beads), FXa 37.0 ng/mL, peptide 2.5 µg/mL [5]: 20100 ECL signal | Mean Signal (ECL, capture on anti-FLAG M1 beads), FXa 37.0 ng/mL, peptide 5.0 µg/mL [5]: 32300 ECL signal | Mean Signal (ECL, capture on anti-FLAG M1 beads), FXa 111 ng/mL, peptide 1.25 µg/mL [5]: 20500 ECL signal | Mean Signal (ECL, capture on anti-FLAG M1 beads), FXa 111 ng/mL, peptide 2.5 µg/mL [5]: 41800 ECL signal | Mean Signal (ECL, capture on anti-FLAG M1 beads), FXa 111 ng/mL, peptide 5.0 µg/mL [5]: 62100 ECL signal | Mean Signal (ECL, capture on anti-FLAG M1 beads), FXa 333 ng/mL, peptide 1.25 µg/mL [5]: 52800 ECL signal | Mean Signal (ECL, capture on anti-FLAG M1 beads), FXa 333 ng/mL, peptide 2.5 µg/mL [5]: 62700 ECL signal | Mean Signal (ECL, capture on anti-FLAG M1 beads), FXa 333 ng/mL, peptide 5.0 µg/mL [5]: 78700 ECL signal | Mean Signal (ECL, capture on anti-FLAG M1 beads), FXa 1000 ng/mL, peptide 1.25 µg/mL [5]: 69000 ECL signal | Mean Signal (ECL, capture on anti-FLAG M1 beads), FXa 1000 ng/mL, peptide 2.5 µg/mL [5]: 78200 ECL signal | Mean Signal (ECL, capture on anti-FLAG M1 beads), FXa 1000 ng/mL, peptide 5.0 µg/mL [5]: 86900 ECL signal | Signal/Background, FXa 1.37 ng/mL, peptide 1.25 µg/mL [5]: 1.9 | Signal/Background, FXa 1.37 ng/mL, peptide 2.5 µg/mL [5]: 1.6 | Signal/Background, FXa 1.37 ng/mL, peptide 5.0 µg/mL [5]: 2.1 | Signal/Background, FXa 4.12 ng/mL, peptide 1.25 µg/mL [5]: 3.7 | Signal/Background, FXa 4.12 ng/mL, peptide 2.5 µg/mL [5]: 4.5 | Signal/Background, FXa 4.12 ng/mL, peptide 5.0 µg/mL [5]: 3.6 | Signal/Background, FXa 12.3 ng/mL, peptide 1.25 µg/mL [5]: 7.5 | Signal/Background, FXa 12.3 ng/mL, peptide 2.5 µg/mL [5]: 9 | Signal/Background, FXa 12.3 ng/mL, peptide 5.0 µg/mL [5]: 8.4 | Signal/Background, FXa 37.0 ng/mL, peptide 1.25 µg/mL [5]: 18 | Signal/Background, FXa 37.0 ng/mL, peptide 2.5 µg/mL [5]: 24 | Signal/Background, FXa 37.0 ng/mL, peptide 5.0 µg/mL [5]: 18 | Signal/Background, FXa 111 ng/mL, peptide 1.25 µg/mL [5]: 35 | Signal/Background, FXa 111 ng/mL, peptide 2.5 µg/mL [5]: 49 | Signal/Background, FXa 111 ng/mL, peptide 5.0 µg/mL [5]: 35 | Signal/Background, FXa 333 ng/mL, peptide 1.25 µg/mL [5]: 89 | Signal/Background, FXa 333 ng/mL, peptide 2.5 µg/mL [5]: 73 | Signal/Background, FXa 333 ng/mL, peptide 5.0 µg/mL [5]: 45 | Signal/Background, FXa 1000 ng/mL, peptide 1.25 µg/mL [5]: 116 | Signal/Background, FXa 1000 ng/mL, peptide 2.5 µg/mL [5]: 91 | Signal/Background, FXa 1000 ng/mL, peptide 5.0 µg/mL [5]: 49

Biotin-conjugated ANTI-FLAG® M1 antibody
Mean Signal (ECL, without FXa) [6]: 91800 ECL signal | Mean Signal (ECL, background without FXa) (NH2-…-TAG (SEQ ID NO:5) [7]): 856 ECL signal | Mean Signal (ECL, background without FXa) (NH2-…-TAG (SEQ ID NO:5) [8]): 593 ECL signal | Mean Signal (ECL, background without FXa) (NH2-…-TAG (SEQ ID NO:5) [9]): 1770 ECL signal

BV TAG Plus-conjugated ANTI-FLAG® M1 antibody
Mean Signal (ECL, background without FXa) [10]: 319 ECL signal | Mean Signal (ECL, background without FXa) [11]: 345 ECL signal

From patent publication US20140141450A1
